Response data for 1 molecule are collected here from publication PMC10256812.

The target in this assay is T1, FLAG-tagged androgen receptor (AR), P10275.
T1 chain: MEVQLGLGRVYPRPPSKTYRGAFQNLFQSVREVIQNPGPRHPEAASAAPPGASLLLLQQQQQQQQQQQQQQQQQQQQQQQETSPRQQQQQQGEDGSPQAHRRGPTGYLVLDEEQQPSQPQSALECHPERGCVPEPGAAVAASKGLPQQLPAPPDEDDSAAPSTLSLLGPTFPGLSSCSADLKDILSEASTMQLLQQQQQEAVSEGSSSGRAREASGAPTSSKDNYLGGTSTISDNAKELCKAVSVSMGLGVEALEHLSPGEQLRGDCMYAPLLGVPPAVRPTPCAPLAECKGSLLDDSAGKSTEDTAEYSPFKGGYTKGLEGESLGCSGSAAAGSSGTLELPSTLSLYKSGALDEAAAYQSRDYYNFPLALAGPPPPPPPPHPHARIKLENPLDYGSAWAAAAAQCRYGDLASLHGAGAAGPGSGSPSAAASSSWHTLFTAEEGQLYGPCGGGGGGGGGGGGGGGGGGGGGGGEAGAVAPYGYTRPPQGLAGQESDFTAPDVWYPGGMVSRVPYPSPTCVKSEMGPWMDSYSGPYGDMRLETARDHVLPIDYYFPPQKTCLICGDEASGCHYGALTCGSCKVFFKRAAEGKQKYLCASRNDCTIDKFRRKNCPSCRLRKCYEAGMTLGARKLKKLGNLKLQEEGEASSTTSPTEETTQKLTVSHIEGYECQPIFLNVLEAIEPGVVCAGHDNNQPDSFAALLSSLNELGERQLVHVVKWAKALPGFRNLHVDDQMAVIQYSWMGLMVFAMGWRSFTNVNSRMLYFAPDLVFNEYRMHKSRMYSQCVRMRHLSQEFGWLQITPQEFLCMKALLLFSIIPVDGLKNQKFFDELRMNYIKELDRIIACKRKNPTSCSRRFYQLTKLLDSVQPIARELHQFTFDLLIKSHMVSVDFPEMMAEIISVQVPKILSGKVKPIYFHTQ
Briefly: co-immunoprecipitation (Ni-NTA pull-down of His-SREBF1, immunoblot with FLAG antibody), band quantification. To be noted: chain shown with the change, HEK293T cells. On the technique in general: A western blot detects proteins with antibodies after separation by electrophoresis.

B1: His-tagged SREBF1 (wild type), expressed in HEK293T cells, P36956 Y673A; Y951A (protein)
chain: MDEPPFSEAALEQALGEPCDLDAALLTDIEDMLQLINNQDSDFPGLFDPPYAGSGAGGTDPASPDTSSPGSLSPPPATLSSSLEAFLSGPQAAPSPLSPPQPAPTPLKMYPSMPAFSPGPGIKEESVPLSILQTPTPQPLPGALLPQSFPAPAPPQFSSTPVLGYPSPPGGFSTGSPPGNTQQPLPGLPLASPPGVPPVSLHTQVQSVVPQQLLTVTAAPTAAPVTTTVTSQIQQVPVLLQPHFIKADSLLLTAMKTDGATVKAAGLSPLVSGTTVQTGPLPTLVSGGTILATVPLVVDAEKLPINRLAAGSKAPASAQSRGEKRTAHNAIEKRYRSSINDKIIELKDLVVGTEAKLNKSAVLRKAIDYIRFLQHSNQKLKQENLSLRTAVHKSKSLKDLVSACGSGGNTDVLMEGVKTEVEDTLTPPPSDAGSPFQSSPLSLGSRGSGSGGSGSDSEPDSPVFEDSKAKPEQRPSLHSRGMLDRSRLALCTLVFLCLSCNPLASLLGARGLPSPSDTTSVYHSPGRNVLGTESRDGPGWAQWLLPPVVWLLNGLLVLVSLVLLFVYGEPVTRPHSGPAVYFWRHRKQADLDLARGDFAQAAQQLWLALRALGRPLPTSHLDLACSLLWNLIRHLLQRLWVGRWLAGRAGGLQQDCALRVDASASARDAALVAHKLHQLHTMGKHTGGHLTATNLALSALNLAECAGDAVSVATLAEIYVAAALRVKTSLPRALHFLTRFFLSSARQACLAQSGSVPPAMQWLCHPVGHRFFVDGDWSVLSTPWESLYSLAGNPVDPLAQVTQLFREHLLERALNCVTQPNPSPGSADGDKEFSDALGYLQLLNSCSDAAGAPAYSFSISSSMATTTGVDPVAKWWASLTAVVIHWLRRDEEAAERLCPLVEHLPRVLQESERPLPRAALHSFKAARALLGCAKAESGPASLTICEKASGALQDSLATTPASSSIDKAVQLFLCDLLLVVRTSLWRQQQPPAPAPAAQGTSSRPQASALELRGFQRDLSSLRRLAQSFRPAMRRVFLHEATARLMAGASPTRTHQLLDRSLRRRAGPGGKGGAVAELEPRPTRREHAEALLLASCYLPPGFLSAPGQRVGMLAEAARTLEKLGDRRLLHDCQQMLMRLGGGTTVTSS
In the case of B1, the response (+ DHT, parent: 0.9) was determined as 3.7 and the response (without DHT, parent: 0.1) was 0.3.
